US20210355194A1

Biological target: COVID S1 RBD Fc fusion (Antigen 1) (SARS-CoV-2), P0DTC2
Experiment: phage ELISA
Details: remark: other sources report otherwise

B1: SARS-CoV-2 variant 1-49 (antibody)
chain 1: EVQLLESGGGLVQPGGSLRLSCAASGFTFSSYAMYWVRQAPGKGLEWVSAISGSAGSTYYADSVKGRFTISRDNSKNTLYLQMNSLRAEDTAVYYCARDTNDFWGQGTLVTVSS
chain 2: QSALTQPASVSGSPGQSITISCTGTSSDIGSYNLVSWYQQHPGKAPKLMIYEGTKRPSGVSNRFSGSKSGNTASLTISGLQAEDEADYYCCSYAGSRTYVFGGGTKLTVL
**Q.** For B1, which ELISA fold over background is on record?
**A.** The ELISA fold over background was 1 fold.

B2: SARS-CoV-2 variant 1-32 (antibody)
chain 1: EVQLLESGGGLVQPGGSLRLSCAASGFTFSSYAMYWVRQAPGKGLEWVSAISGSGGSTFYADSVKGRFTISRDNSKNTLYLQMNSLRAEDTAVYYCTRPPYGDYGDYWGQGTLVTVSS
chain 2: QSALTQPASVSGSPGQSITISCTGTSSDVGGYNLVSWYQQHPGKAPKLMIYEGNKRPSGVSNRFSGSKSGNTASLTISGLQAEDEADYYCCSYAGSSTFPVVFGGGTKLTVL
**Q.** How did the ELISA fold over background turn out when B2 was run?
**A.** The ELISA fold over background was 1.5 fold.

B3: SARS-CoV-2 variant 1-4 (antibody)
chain 1: EVQLLESGGGLVQPGGSLRLSCAASGFTFSSQAMSWVRQAPGKGLEWVSAISGSGGGTYYADSVKGRFTISRDNSKNTLYLQMNSLRAEDTAVYYCAKDRRFGEFDPWGQGTLVTVSS
chain 2: QSALTQPASVSGSPGQSITISCTGTSSDVGTYNLVSWYQQHPGKAPKLMIYEGSQRPSGVSNRFSGSKSGNTASLTISGLQAEDEADYYCCSYAGSSSFVVFGGGTKLTVL
**Q.** Which ELISA fold over background does the source give for B3 here?
**A.** The ELISA fold over background was 1.4 fold.

B4: SARS-CoV-2 variant 1-28 (antibody)
chain 1: EVQLLESGGGLVQPGGSLRLSCAASGFTFSSYGMSWVRQAPGKGLEWVSAISGSGGGTYYADSVKGRFTISRDNSKNTLYLQMNSLRAEDTAVYYCASSSSWQFDYWGQGTLVTVSS
chain 2: QSALTQPASVSGSPGQSITISCTGTSSGVGSYNLVSWYQQHPGKAPKLMIYEGSQRPSGVSNRFSGSKSGNTASLTISGLQAEDEADYYCCSYAGSSTHYVFGGGTKLTVL
**Q.** For B4, which ELISA fold over background is on record?
**A.** Its ELISA fold over background is 1.1 fold.

B5: SARS-CoV-2 variant 1-31 (antibody)
chain 1: EVQLLESGGGLVQPGGSLRLSCAASGFTFSSYAMNWVRQAPGKGLEWVSAISGSGGSTFYADSVKGRFTISRDNSKNTLYLQMNSLRAEDTAVYYCTRPPYGDYGDYWGQGTLVTVSS
chain 2: QSALTQPASVSGSPGQSITISCTGTSSDVGKYNLVSWYQQHPGKAPKLMIYEGSQRPSGVSNRFSGSKSGNTASLTISGLQAEDEADYYCCSYAGSRTPVVFGGGTKLTVL
**Q.** B5 was tested. Which ELISA fold over background did it give?
**A.** The ELISA fold over background was 1.3 fold.

B6: SARS-CoV-2 variant 1-30 (antibody)
chain 1: EVQLLESGGGLVQPGGSLRLSCAASGFTFSSYAMTWVRQAPGKGLEWVSAISGSGGSTFYADSVKGRFTISRDNSKNTLYLQMNSLRAEDTAVYYCTRPPYGDYGDYWGQGTLVTVSS
chain 2: QSALTQPASVSGSPGQSITISCTGTSRDVGSYNLVSWYQQHPGKAPKLMIYEGTKRPSGVSNRFSGSKSGNTASLTISGLQAEDEADYYCCSYAGSRTPVVFGGGTKLTVL
**Q.** For B6, which ELISA fold over background is on record?
**A.** The ELISA fold over background was 1.7 fold.

B7: SARS-CoV-2 variant 1-3 (antibody)
chain 1: EVQLLESGGGLVQPGGSLRLSCAASGFTFSSQAMSWVRQAPGKGLEWVSAISGSGGGTYYADSVKGRFTISRDNSKNTLYLQMNSLRAEDTAVYYCAKDRRFGEFDPWGQGTLVTVSS
chain 2: QSALTQPASVSGSPGQSITISCTGISSDVGSYNLVSWYQQHPGKAPKLMIYEGTKRPSGVSNRFSGSKSGNTASLTISGLQAEDEADYYCCSYAGSSSFVVFGGGTKLTVL
**Q.** With B7 as the binder, how does the ELISA fold over background read?
**A.** The ELISA fold over background was 1.8 fold.

B8: SARS-CoV-2 variant 1-5 (antibody)
chain 1: EVQLLESGGGLVQPGGSLRLSCAASGFTFSSQAMSWVRQAPGKGLEWVSAISGSGGGTYYADSVKGRFTISRDNSKNTLYLQMNSLRAEDTAVYYCAKDRRFGEFDPWGQGTLVTVSS
chain 2: QSALTQPASVSGSPGQSITISCTGTSSGVGSYNLVSWYQQHPGKAPKLMIYEASKRPSGVSNRFSGSKSGNTASLTISGLQAEDEADYYCCSYAGSYTFAVFGGGTKLTVL
**Q.** B8 was tested. Which ELISA fold over background did it give?
**A.** The ELISA fold over background was 1.6 fold.
